Assay: yeast display, Sf9 membrane polyspecificity reagent, FACS + sequencing; frameworks hold sequencing errors
How it was run: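 Synthetic nanobody libraries on Saccharomyces cerevisiae BJ5465 were galactose-induced for 36–48 hours, stained 1 hour at 4 °C with 10% biotinylated, detergent-solubilized Sf9 membrane reagent and enriched on streptavidin microbeads. FACS then separated cells into low and high (top ~1%) gates by anti-HA (expression) and streptavidin (reagent binding) fluorescence. Genes were colony-PCR amplified, MiSeq 2 × 250 sequenced and CDR-length filtered. A clone's polyreactivity label is that of its gate of origin.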
In the case of “QVQLVESGGGLVQAGGSLRLSCAASGFTFATYAMGWYRQAPGKKGRLVAAISNAGSTKYADSVKGRFTISRDNAKNTVYLQMNSLKPEDTAVYYCAASTLYASSYYLYDYWGQGTQVTVSS”, the “polyreactivity (PSR sort gate)” value is reported as “high polyreactivity”. With “QVQLVESGGGLVQAGGSLRLSCAASGRTFTVNRMGWYRQAPGKERELVAGITLRGANTYYADSVKGRFTISRDNAKNTVYLQMNSLKPEDTAVYYCNDDVKYRYNHWGQGTQVTVSS” the “polyreactivity (PSR sort gate)” value was “high polyreactivity”. With “QVQLQESGGGLVQAGGILRMSCAASGTIFSEANMGWYRQAPGKERELVATIGQGSTTNYADSVKGRFTISRDNAKNTVYLQMNSLKPEETAVYYCAVVTVDAVGFVYWCQGTQVTVSS” the “polyreactivity (PSR sort gate)” value was “low polyreactivity”. With “QVQLVESGGGLVQAGGSLRLSCAASGSIFFPYTMGWYRQAPGKERELVARISLGGGRTYYADSVKGRFTISRDNAKNTVYLQMNSLKPEDTAVYYCNRGGWYAYYWGQGTQVTVSS” the “polyreactivity (PSR sort gate)” value was “high polyreactivity”. With “QVQLVESGGGLVQAGGSLRLSCAASGRTFTSYAMGWYRQAPGKEREFVAAITTSGGSTYYTDSVKGRFTISRDNAKNTVYLQMNSLKPEDTAVYYCAAYVAYDRSGQYDYWGQGTQVTVSS” the “polyreactivity (PSR sort gate)” value was “high polyreactivity”. With “QVQLVESGGGLVQAGGSLRLSCAASGSIFVWYVMGWYRQAPGKERELVAAITWSAARTYDADSVKGRFTISRDNAKNTVYLQMNSLKPADTAVYYCAADHVSYQPSSRIFDYWGQGTQVTVSS” the “polyreactivity (PSR sort gate)” value was “low polyreactivity”. In the case of “QVQLVESGGGLVQAGGSLRLSCAASGSIFGWNAMGWYRQAPGKERELVAAITRRGDSTYYADSVKGRFTISRDNAKNTVYLQMNSLKPEDTAVYYCAKRGTGVYRVDYGYWGQGTQVTVSS”, the “polyreactivity (PSR sort gate)” value is reported as “high polyreactivity”. In the case of “QLQLVETGGGLVQAGGSLRLSCASSGRTFTAYAMVWYREAAGKESELVAAITLSGGRTYYADSVKGRFTISRDNAKNTVYLQMNSLKPEDTAVYYCATDYYWGQGTQVTVSS”, the “polyreactivity (PSR sort gate)” value is reported as “high polyreactivity”. In the case of “QVQLVESGGGLGQAGGSLRLSCAASGSIFTQYAMGWFRPAPGKERELVATISKSSGSTYYADSVKGRFTNSRDNAKNTVYLQMNSLKPEDTAVYDCAARYTRAYPYYYWGQGTQVTVSS”, the “polyreactivity (PSR sort gate)” value is reported as “high polyreactivity”. In the case of “QVQLVESGGGLVQAGGSLRISCAASGSTFGPYAMGWYRQAPGKERELVAAIRWSDGSTYYADSVKGRFTISRDNANNTVYLQMNTLKPEDTAVSYCAVDGYGYNDDYWGQGTQVTVSS”, the “polyreactivity (PSR sort gate)” value is reported as “high polyreactivity”. With “QVQLVESGGGLVQAGGSLRLSCAASGRTFGDYAMGWYRQAPGKERELVAAISSSGGRTYYADSVKGRFTISRDNAKNTVYLQMNSLKPEDTAVYYCAAQSKYYQYYSWGQGTQVTVSS” the “polyreactivity (PSR sort gate)” value was “high polyreactivity”. In the case of “QVQLVESGGGLVQAGGSLRLSCAASVLTFITNVMVWYRQAPGKERELVAVISSRGGTTYYADSVKGRFTISRDNAKNTVYLQMNSLKPEETAVYYCNRVRSPKYDWGQGTQVTVSS”, the “polyreactivity (PSR sort gate)” value is reported as “high polyreactivity”. In the case of “QVQLVETGGRIVQAGGSLRLSCAASGRIMDTNAMGWYRQAPGKEREFVAAITWIDGSTYYADSVKGRFTISRDNATNTVYLQMNSLKPEDTAVYYWNVQYTVDRYPSPPYSETGDYWGQGTQVTVSS”, the “polyreactivity (PSR sort gate)” value is reported as “low polyreactivity”. With “QVQLVESGGGLVQAGGSLRLSCAASGSIFNVNAMGWYRQAPGKERELVAAISSGGNTNYADSVKGRFTFSRDNAKNTVYLQMNRLKPEDTAVYYCATGGYYSAIVYGGYDYWGQGTQVTVSS” the “polyreactivity (PSR sort gate)” value was “low polyreactivity”. For “QVQLVESGGGLVQAGGSLRLSCAASGFIFPHYTMGWYRPAPGKERELVAAISSSGGSTYYADSVKGRFTISRDNANNTVYLQMNSLKPEDTAVYYCAADWSITYGDGGYWGQGTQVTVSS”, the “polyreactivity (PSR sort gate)” value was “low polyreactivity”. With “QVQLVESGGGLVQAGGSLRLSCAASGITFDYYSMGWYRQAPGTERELVAAISWGGGSTYYADSVKGRFTISRDNAKNTVYLQMNSLKPEDTAVYYCAADIVSSPSSYVPPGDYWGQGTQVTVSS” the “polyreactivity (PSR sort gate)” value was “low polyreactivity”. In the case of “QVQLVESGGGLVQAGGSLRLSCAASGSTFSNNTMGWYRQAPGKETELVATIDFNGGSTYYADSVKGRFTISRDNAKNTVYLQMNSLKPEDTAGYYCAAAEYLYTLPYGYWGQGTQVTVSS”, the “polyreactivity (PSR sort gate)” value is reported as “low polyreactivity”. For “QVQLVESGGGLVQAGGSLRLSCAASGRTYPRYGMGWYRQAPGKERELVDTIRTGGRTNYADSVKGRFTISRDNAKNTVYLQMNSLKPEDTAVYYCATDSSKHPYSPTLLKFDYWGQGTQVTVSS”, the “polyreactivity (PSR sort gate)” value was “low polyreactivity”. For “QVQLVESGGRLVQAGGSLRISCAASGSTFNGNVIVWSRQAPGKERELVAGISKSGGTTYYADSVKGRFTISRDNAKNTVYLQMNSLKPEDTAVYYCAARGRVRYYPQYDYWGQGTQVTVSS”, the “polyreactivity (PSR sort gate)” value was “high polyreactivity”. With “QVQLVESGGGLVQAGGSLRLSCAASGSIFQDNTMGWYRQAPGKERELVAAISWSATSTYYADSVTGRFSISRDNAKNTVYLQMNRLKPEDTAVYDCAAGRSYRRYAYYYWGQGTQVTVSS” the “polyreactivity (PSR sort gate)” value was “high polyreactivity”. In the case of “QVQLVESGGGLVQAGGSLRLSCAASGSNFFSYAMGWYREAPGKERELVAAIDYSGGGTYYADSVKGRFTISRDNAKNTVYLQMNSLKPEDTAVYYCNSDTEVWADTFISYRALNYWGQGTQVTVSS”, the “polyreactivity (PSR sort gate)” value is reported as “low polyreactivity”. For “QVQLVESGGGLVQAGGSLRLSCDASGGIFYGYAMGWYRQAPGKERELVAAISDSGGSTYYSDSVKGRFTITRDNAKNNVYLQMNSLKPEDTAVYYCATDAPVGGYVSEGDYWGQGTQVTVSS”, the “polyreactivity (PSR sort gate)” value was “low polyreactivity”. In the case of “QVQLVESGGGLVQAGGSLRLSCAASGSIFGIYVMGWYRQAPGKERELVAGISTRGGSTYYADSVKGRFTISRDNAKNTVYLQMNSLKPEDTAGYYCAAVPASYRDPMYYWGQGTQVTVSS”, the “polyreactivity (PSR sort gate)” value is reported as “low polyreactivity”. With “QVQLVESGGGLVQAGGSLRLSCAASGSTFTLYAMGWYRQAPGKERELVAAISGIGDSTYYADSVKGRFTISRDYAKNNVYLQKNSLKPEDTAVYYCAADGEYRYDWEYESWGQGTHVTVSS” the “polyreactivity (PSR sort gate)” value was “low polyreactivity”. For “QVQLVQSRRGLVQAGCSLRLSCAASGRTFVIYAMGWYRQAPGKERELVAAISKGGGSTYYADSVKGRFTISRDNAKNTVYLQMNSLKPEDTAVYYCAVEASRAGAWYEYWGQGTQVTVSS”, the “polyreactivity (PSR sort gate)” value was “high polyreactivity”. For “QVQLVESGGGLVHAGGSLRLSCAASGRTFAYNAMGWYRQAPGKERELVAAITRSTGNTYYADSVKGRFTISRDNAKNTVYLQMNSLKPEDTAVYYCAAAYAYWRKYDYWGQGTQVTVSS”, the “polyreactivity (PSR sort gate)” value was “high polyreactivity”. For “QVQLVESGGGLVQAGGSLRLSCAASGFTFNDYAMGWYRQAPGKERELVAAIDWSGGRTYYADSVKGRFTISRDNAKNTVYLQMNSLKPEDTAVYYCAAVLYSRMYWYRLDYWGQGTQVTVSS”, the “polyreactivity (PSR sort gate)” value was “low polyreactivity”. In the case of “QVQLVESGGGLVQAGGSLRLSCAASGSTFGRNAMGWYRQAPGKERELVAAITASGGTTYYADSVKGRFTISRDNAMNTVYLQMNSLKPEDTAVYYCARAGHFSFKYDYWGQGTQVTVSS”, the “polyreactivity (PSR sort gate)” value is reported as “low polyreactivity”. For “QVQLVESGGGLVQSGGSLRLSCAASGSTFTLYAMGWYRQAPGKERELVAAIRASVGRTYNADSVKGRFTISRDNAKNTVYLQMNSLKPEDTAVYYCNAYGRYGKFRVEYDYWGQGTQVTVSS”, the “polyreactivity (PSR sort gate)” value was “low polyreactivity”. With “QVQLVESGGGLVQAGGSLRLSCAASGFTFSENTMGWYRQAPGKERELVADIDSGGSTYYADSVKGRFTISRDNAKNTVYLQMKRLKPEDTAVYYCAKDYHVVGGPTFLFEYDYWGQGSQVTVSS” the “polyreactivity (PSR sort gate)” value was “low polyreactivity”.
